Ten molecules from paper PMC11406360, “The enzymatic oxygen sensor cysteamine dioxygenase binds its protein substrates through their N-termini” (The Journal of Biological Chemistry, 2024) can be followed below.

In series [1] the target is 2-aminoethanethiol (cysteamine) dioxygenase (ADO), biotinylated, for SPR (human) (UniProt Q96SZ5). Briefly: SPR; Biacore T200; biotinylated ADO immobilized on a Biotin CAP chip (∼2500 to 3000 RU), peptide/protein substrates injected; 4 °C; 20 mM Hepes pH 7.5, 500 mM NaCl, 10 mM DTT, 0.1% tween-20; 50 μl/min; multicycle, equilibrium steady state affinity 1:1 binding model. (In general: In SPR one partner is held on a chip, and binding of the other changes the refractive index at the surface.)

Series [2] addresses T1, 2-aminoethanethiol (cysteamine) dioxygenase (ADO), biotinylated, for SPR (human, UniProt Q96SZ5 1-270, biotin (N terminally biotinylated; 0.2 mM biotin added at induction)).
T1 chain: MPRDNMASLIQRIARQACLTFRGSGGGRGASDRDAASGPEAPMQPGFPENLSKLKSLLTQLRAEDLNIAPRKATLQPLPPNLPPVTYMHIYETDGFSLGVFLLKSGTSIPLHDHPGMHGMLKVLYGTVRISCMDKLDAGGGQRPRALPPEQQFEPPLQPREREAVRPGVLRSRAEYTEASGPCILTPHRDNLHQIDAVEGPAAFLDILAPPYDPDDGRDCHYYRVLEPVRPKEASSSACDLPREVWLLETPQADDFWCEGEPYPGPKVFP
Briefly: SPR.

Series [3] has as its target cobalt substituted ADO (ADO-Co^2+), biotinylated, for SPR (human) (UniProt Q96SZ5). As to the kind of experiment: SPR; as a1, but single cycle kinetics (SCK) mode fit to a 1:1 binding model; ADO-Co^2+ immobilized.
For series [4], the target named is T2, ADO-H193D, biotinylated, for SPR (human, UniProt Q96SZ5 1-270, H193D, biotin (N terminally biotinylated)).
T2 construct: 2-aminoethanethiol (cysteamine) dioxygenase (ADO), human, UniProt Q96SZ5, full length, H193D; Mutant with impaired iron retention (reduced metal occupancy by ICP-MS); source: E. coli Rosetta2(DE3), pQE80L-Navi construct, site-directed mutagenesis, purified (Ni-NTA, SEC); not shown: biotinylation tag (from the vector pQE80L-Navi), N-terminal, kept
T2 sequence (looked up): T1 chain with H193D
As to the kind of experiment: SPR; Biacore T200; biotinylated ADO immobilized on a Biotin CAP chip (∼2500 to 3000 RU), peptide/protein substrates injected; 4 °C; 20 mM Hepes pH 7.5, 500 mM NaCl, 10 mM DTT, 0.1% tween-20; 50 μl/min; multicycle, equilibrium steady state affinity 1:1 binding model. The note with it: both partners purified.

Series [5] addresses ADO-H193D, biotinylated, for SPR (human, UniProt Q96SZ5 1-270, H193D, biotin (N terminally biotinylated)). Briefly: SPR.
Series [6] has as its target T1, 2-aminoethanethiol (cysteamine) …. Briefly: SPR; before treatment.
Series [7] concerns the target T3, cobalt substituted ADO (ADO-Co^2+), biotinylated, for SPR (human, UniProt Q96SZ5 1-270, biotin (N terminally biotinylated)).
T3 chain: T1 chain
Briefly: SPR; single cycle kinetics.

Series [8] concerns the target T1, 2-aminoethanethiol (cysteamine) …. As to the kind of experiment: SPR; post-reconstitution with Fe2+.
The target is the same in series [9]. Briefly: SPR; post-metal removal (phenanthroline/EDTA).
Substrate in series [10]: CC(C)C[C@H](NC(=O)CNC(=O)[C@H](C)NC(=O)[C@@H](N)CS)C(=O)N[C@@H](C)C(=O)N[C@@H](C)C(=O)N[C@@H](CC(C)C)C(=O)N1CCC[C@H]1C(=O)N[C@@H](Cc1c[nH]cn1)C(=O)N[C@@H](CO)C(=O)N[C@@H](CS)C(=O)N[C@@H](CC(C)C)C(=O)N[C@@H](CCC(=O)O)C(=O)N[C@@H](CCCNC(=N)N)C(N)=O
Briefly: LC-MS enzyme activity assay (Nt-cys sulfinylation by ADO). Format: biochemical, human. The note with it: other: Michaelis-Menten, stopped LC-MS assay, 37 °C, atmospheric O2; three independent experiments; pH 7.5; 37.0 °C. As for the experimental part: (§1) […] Otherwise stated, the reaction buffer contained 50 mM Tris pH 7.5, 50 mM NaCl, and 5 mM TCEP. The reactions were quenched by mixing the sample 1:10 (peptide) or 1:5 (protein) with 1% formic acid (v/v).
(§2) Peptide and protein samples were injected onto a Chromolith RP-18 Endcapped HPLC Columns (100–2 mm; Merck) and Discovery BIO Wide Pore C5 HPLC Column (Supelco), respectively, heated to 40 °C and eluted at 0.3 ml/min using a gradient of 95% deionized water supplemented with 0.1% (v/v) formic acid to 95% acetonitrile. Oxidation was monitored by an ultra high-performance liquid chromatography MS using ExionLC AD (Sciex) and SelexION (Sciex) mass spectrometer operated in a positive electrospray TOF (+ESI-TOF) mode. Instrument parameters, data acquisition and data processing were controlled by Analyst software (Sciex; https://sciex.com/products/software/analyst-software). The peptide data processing was performed using Skyline software (MacCoss Lab Software; https://skyline.ms/project/home/software/Skyline/begin.view) ([38]). All figures and parameters were generated using GraphPad Prism 9 (GraphPad; https://www.graphpad.com/features).

Substrate in series [11]: CC(C)C[C@H](NC(=O)CNC(=O)[C@H](CCCCN)NC(=O)[C@@H](N)CS)C(=O)N[C@@H](C)C(=O)N[C@@H](C)C(=O)N[C@@H](CC(C)C)C(=O)N1CCC[C@H]1C(=O)N[C@@H](Cc1c[nH]cn1)C(=O)N[C@@H](CO)C(=O)N[C@@H](CS)C(=O)N[C@@H](CC(C)C)C(=O)N[C@@H](CCC(=O)O)C(=O)N[C@@H](CCCNC(=N)N)C(N)=O
Described as above. The note with it: other: Michaelis-Menten, stopped LC-MS assay, atmospheric O2, three independent experiments, pH 7.5. Format: biochemical, human. The method, then:
as §1, §2

Substrate in series [12]: CC(C)C[C@H](NC(=O)[C@H](C)NC(=O)[C@H](CCCCN)NC(=O)[C@@H](N)CS)C(=O)N[C@@H](C)C(=O)N[C@@H](C)C(=O)N[C@@H](CC(C)C)C(=O)N1CCC[C@H]1C(=O)N[C@@H](Cc1c[nH]cn1)C(=O)N[C@@H](CO)C(=O)N[C@@H](CS)C(=O)N[C@@H](CC(C)C)C(=O)N[C@@H](CCC(=O)O)C(=O)N[C@@H](CCCNC(=N)N)C(N)=O
The series is described as above. Format: biochemical, human. The note with it: other: Michaelis-Menten, stopped LC-MS assay, 37 °C, atmospheric O2; three independent experiments; pH 7.5; 37.0 °C. The method, then:
as §1, §2

Where a chain is given by its changes, count along the chain named. Names and notes keep the numbering of the source. Values joined by “and” are separate entries in the source; they are usually repeats but may differ in a detail not shown here. Identical values can stand only once.

The molecule “RGS5 dipeptide (di-RGS5) (from UniProt O15539 2-3)” yielded a Kd in series [1] of 1200 nM.

Consider “RGS5 tripeptide (tri-RGS5) (from UniProt O15539 2-4)”, for which the Kd in [1] stood at 460 nM.

CKGLAALPHACLER [RGS5-S11A] displayed a Kd in [2] of 350 nM.

B1: native IL32 peptide (first 14 amino acids of the methionine excised N terminus of interleukin 32) (peptide, UniProt P24001 2-15, looked up)
peptide: CFPKVLSDDMKKLK
notes: interleukin 32 (IL32), first 14 amino acids of the methionine excised N terminus: residues 2-15 with the initiating methionine denoted as 1; source: synthetic peptide (SPPS, HPLC purified)
Molecule B1 displayed a fold increase in binding affinity relative to native ADO in series [3] of 10 fold. In addition, the “fold weaker KD than with WT ADO” value in series [4] is ~77 fold.

B2: native RGS5 peptide (first 14 amino acids of the methionine excised N terminus of RGS5) (peptide, UniProt O15539 2-15, looked up)
peptide: CKGLAALPHSCLER
notes: regulator of G-protein signaling 5 (RGS5), first 14 amino acids of the methionine excised N terminus: residues 2-15 with the initiating methionine denoted as 1; source: synthetic peptide (SPPS, HPLC purified)
With B2, the Kd is 3300 nM in series [5]; 370 nM in series [6]; 27 nM in series [7]; 330 nM in series [8]; 320 nM in series [9]. In [3], this molecule registered a fold increase in binding affinity relative to native ADO of 10 fold. Also, the “fold weaker KD than with WT ADO” value in series [4] is ~13 fold.

B3: ADO (Homo sapiens) (protein)
chain: T1 chain
notes: Full-length human ADO (UniProt ID: Q96SZ5) was cloned; made in house; host or cells: Rosetta2(DE3) Escherichia coli
For the molecule B3, the Km in series [10] was 1970 µM; in series [11] (25 °C, 25.0 °C) it was 62 µM and 125 µM; in [11] (37 °C, 37.0 °C), 83 µM; in series [12], 33 µM. Also, the kcat was 100 s⁻¹ in series [10]; 7 s⁻¹ and 19 s⁻¹ in [11] (25 °C, 25.0 °C); 22 s⁻¹ in [11] (37 °C, 37.0 °C); 8 s⁻¹ in [12]. Further, the kcat/Km in series [10] was 0.51 x 10^5 s^-1M^-1; in series [11] (25 °C, 25.0 °C), 1.1 x 10^5 s^-1M^-1 and 1.5 x 10^5 s^-1M^-1; in series [12], 2.4 x 10^5 s^-1M^-1.

CKGLAALPASCLER [RGS5-H10A]: the Kd in [2] was 240 nM.

In turn, CKGLAAAPHSCLER [RGS5-L8A] had a Kd in series [2] of 310 nM.

With CKGAAALPHSCLER [RGS5-L5A], the affinity in series [2], expressed as Kd, was 220 nM.

Molecule CKGLAALAHSCLER [RGS5-P9A] displayed a Kd in [2] of 250 nM.

The term Kd denotes the constant that tells how readily two partners part at equilibrium. Higher therefore signals a looser complex. As a reminder, the Km is the concentration of substrate that gives half-maximal velocity. A word on the kcat: it is the number of substrate molecules converted per active site and unit of time at saturation.
